Assay results taken from paper PMC4621513.

Biological target: APOBEC3G (A3G) (UniProt Q9HC16)
Test: AFM imaging
Details: protein:DNA 2:1, Force spectroscopy probing buffer: 50 mM HEPES, 100 mM NaCl, 5 mM MgCl2, 1 mM DTT (pH and temperature not given), imaging buffer not in the material

Chain of APOBEC3G (A3G) (Q9HC16 whole entry): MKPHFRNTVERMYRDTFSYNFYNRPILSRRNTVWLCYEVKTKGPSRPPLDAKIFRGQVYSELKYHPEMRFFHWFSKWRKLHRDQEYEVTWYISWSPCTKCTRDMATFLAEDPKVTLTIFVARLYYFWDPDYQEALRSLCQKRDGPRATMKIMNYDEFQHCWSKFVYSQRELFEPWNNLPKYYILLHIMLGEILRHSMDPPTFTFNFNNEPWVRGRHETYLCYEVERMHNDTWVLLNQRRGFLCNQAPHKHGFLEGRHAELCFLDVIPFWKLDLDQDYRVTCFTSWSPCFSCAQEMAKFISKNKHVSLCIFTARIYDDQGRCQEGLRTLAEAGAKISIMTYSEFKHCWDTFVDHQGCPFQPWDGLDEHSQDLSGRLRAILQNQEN

Substance | binding signal (% complex yield) | binding signal (% complex yield) (p = 0.12 vs specific (not significant))
418 bp duplex with 69 nt deaminase specific overhang | 79.7 | –
418 bp duplex with 69 nt nonspecific overhang | – | 72.8
